From PMC8972799 come the findings set out here.

In this assay the target is T1, D-alanyl carrier protein ligase DltA from Staphylococcus aureus Mu50 (S. aureus) (UniProt P68876).
T1 sequence: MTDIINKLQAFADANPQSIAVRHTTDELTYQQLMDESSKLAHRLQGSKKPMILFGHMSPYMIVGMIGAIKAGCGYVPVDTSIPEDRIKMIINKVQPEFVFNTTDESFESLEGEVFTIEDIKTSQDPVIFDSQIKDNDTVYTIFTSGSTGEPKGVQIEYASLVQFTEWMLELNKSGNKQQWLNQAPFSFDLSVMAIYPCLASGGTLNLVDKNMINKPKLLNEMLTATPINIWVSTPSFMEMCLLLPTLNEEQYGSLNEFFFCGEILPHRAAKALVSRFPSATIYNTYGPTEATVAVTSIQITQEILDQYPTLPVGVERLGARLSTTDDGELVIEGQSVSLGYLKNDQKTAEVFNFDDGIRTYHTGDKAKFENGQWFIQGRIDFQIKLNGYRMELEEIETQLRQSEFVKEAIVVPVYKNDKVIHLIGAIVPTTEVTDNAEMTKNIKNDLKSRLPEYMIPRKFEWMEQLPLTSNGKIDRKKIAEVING

B1: wild-type S. aureus DltC, Ppant-modified (natural protein)
chain: MEFREQVLNLLAEVAENDIVKENPDVEIFEEGIIDSFQTVGLLLEIQNKLDIEVSIMDFDRDEWATPNKIVEALEELR
modifications: 4'-phosphopantetheinyl (Ppant) group at Ser36
For the molecule B1, the adenylation activity of SaDltA (5 µM; initial rate, pyrophosphate-detection assay, 5 mM D-alanine) in the presence of 300 µM wild-type SaDltC, against SaDltA alone amounted to 7.2 fold.
